The results in this text go back to PMC2248716.

Assay in all cases: FRET or BRET
(BRET reads energy transfer from a luciferase to a nearby fluorophore.)

Test [1] addresses NaV1.4-EYFP (UniProt P15390).
The target in test [2] is NaV1.4-EYFP (UniProt P15390). This is another data set of the same source.
The target of another test is NaV1.4_(IQ/AA)-EYFP (UniProt P15390).
The target in test [3] is NaV1.4-EYFP (UniProt P15390). The source holds these as a separate data set.
For test [4], the target named is NaV1.4-EYFP (UniProt P15390). The source holds these as a separate data set.
Test [5] concerns the target NaV1.4-EYFP (UniProt P15390). This is another data set of the same source.

Like-named read-outs stand apart in the source and are kept apart here.

For the substance “ECFP-CaM (from UniProt P0DP23 1-149) (natural protein)”, the FRET efficiency with NaV1.4-EYFP [1] was 25.4%; with NaV1.4-EYFP [2], 8.2%; with NaV1.4-EYFP [3], 22.7%; with NaV1.4-EYFP [4], 9.9%; in the test with NaV1.4-EYFP [5], 10.3%. In addition, the FRET ratio with NaV1.4-EYFP [2] was > 1; with NaV1.4_(IQ/AA)-EYFP, < 1; with NaV1.4-EYFP [5], 2.
